B1: mAb 159 (antibody, V domains shown)
VH: EVQLVESGGGVVQPGRSLRLSCAASGFTFSSYGMHWVRQAPGKGLEWVALISYDGGNRYYADSVKGRFTISRDNSKNTLYLQMNRLRAEDTAMYYCAKDRDDGWDWYYFMDVWGKGTTVTVSS
VL: DIQLTQSPGTLSLSPGERATLSCRASQSISGNYLAWYQHKPGQAPRLLIYGASTRATGIPDRFSGSGSGTDFTLTISRLEPEDFAVYYCQQYGSSYTFGQGTKVEIK
B2: mAb 45 (antibody, V domains shown)
VH: QVQLVESGGGVVQPGRSLRLSCAASGFTFSTYAMHWVRQAPGKGLEWVAVLSYDGSNKYYADSVKGRFTISRDNSKNTLYLQMNSLRAEDTAVYYCAKGGSYAYYYYMDVWGKGTTVTVSS
VL: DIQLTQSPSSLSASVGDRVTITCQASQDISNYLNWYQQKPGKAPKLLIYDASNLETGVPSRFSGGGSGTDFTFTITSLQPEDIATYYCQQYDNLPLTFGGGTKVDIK
notes: also called antibody 45
B3: mAb 165 (antibody, V domains shown)
VH: QVQLVQSGPEVKKPGTSVKVSCKASGFTFTSSAVQWVRQARGQRLEWIGWIVVGSGNTNYAQKFQESVTITRDMSTSTAYMELSSLRSEDTAVYYCAAPHCIGGSCHDAFDIWGQGTMVTVSS
VL: DIVMTQSPGTLSLSPGERATLSCRASQSVRSSYLAWYQQKPGQAPRLLIYGASRRGTGIPDRFSGSGSGTDFTLTISRLEPEDFAVYYCQQYGSSPWTFGQGTKVEIK
B4: mAb 318 (antibody, V domains shown)
VH: QVQLVQSGPEVKKPGTSVKVSCKASGFTLTSSAMQWVRQARGQRLEWIGWIVVGSGNTNYAQKFQERVTITRDMSTSTAYMELSSLRSEDTAVYYCAAGRGYNSDFDYWGQGTLVTVSS
VL: AIRMTQSPGTLSLSPGERATLSCRASQSVSSSYLAWYQQRPGQAPRLLIYGTSSRATGIPDRFSGSGSGTDFTLTISRLEPEDFAVYYCQQYGYSVYTFGQGTKVDIK
B5: mAb 222 (antibody, V domains shown)
VH: EVQLVESGGGLIQPGGSLRLSCAASGLTVSSNYMSWVRQAPGKGLEWVSVIYSGGSTFYADSVKGRFTISRDNSKNTLYLQMNSLGAEDTAVYYCARGEGSPGNWFDPWGQGTLVTVSS
VL: DVVMTQSPGTLSLSPGERATLSCRASQSVPSSYLAWYQQKPGQAPRLLIYGASTRATGIPDRFSGSGSGTDFTLTISRLEPEDFAVYYCQHYDTSPRFGGGTKVDIK
B6: mAb 175 (antibody, V domains shown)
VH: EVQLVESGGGLIQPGGSLRLSCAASGLTVSRNYMSWVRQAPGKGLEWVSLIYSGGSTYYADSVKGRFTISRDNSKNTLYLQMNSLRAEDTAVYYCARDLRGEVWGQGTMVTVSS
VL: not shown
B7: mAb 269 (antibody, V domains shown)
VH: QVQLVESGGGLIQPGGSLRLSCAASGLTVNRNYMSWIRQAPGKGLEWVSVIYSGGSTFYADSVKGRFTISRDNSKNTLSLQMNSLRAEDTAIYYCARDFYEGSFDIWGQGTMVTVSS
VL: AIQLTQSPSFLSASIGDRVTITCRASQGISSYLAWYQQKPGKAPKLLIYAASTLQSGVPSRFSGSGSGTEFTLTISSLQPEDFASYYCQQLNSYPAPVFGPGTKVDIK
B8: antibody 158, full-length IgG (antibody, V domains shown)
VH: EVQLLESGGDLIQPGGSLRLSCAASGVTVSSNYMSWVRQAPGKGLEWVSIIYPGGSTFYADSVKGRFTISRDNSKNTLYLQMHSLRAEDTAVYYCARDLGSGDMDVWGKGTTVTVSS
VL: DIVMTQSPSFLSASVGDRVTITCRASQGISSYLAWYQQKPGKAPKLLIQAASTLQSGVPSRFSGSGSGTEFTLTISSLQPEDFATYYCQQLNSYRYTFGQGTKVEIK
notes: also called mAb 158; 158 IgG
B9: antibody 316, full-length IgG (antibody, V domains shown)
VH: not shown
VL: QAVLTQPPSASGSPGQSVTISCTGTSSDVGGYNYVSWYQQHPGKAPKLMIYEVSKRPSGVPDRFSGSKSGNTASLTVSGLQAEDEADYYCSSYAGSNHWVFGGGTKLTVL
notes: also called mAb 316; 316 IgG
B10: antibody 159, full-length IgG (antibody, V domains shown)
VH: B1 VH
VL: B1 VL
B11: antibody 88, full-length IgG (antibody, V domains shown)
VH: QLQLQESGPGLVKPSQTLSLTCTVSGGSISSGSYNWTWIRQPAGKGLEWIGRIYNSGSTNYNPSLKSRVTISVDTSKNQLSLKVRSVTAADTAVYYCARHCSGGTCYPKYYYGMDVWGQGTTVTVSS
VL: QSALTQPPSVSEAPRQRVTISCSGSSSNIGNNAVNWYQQFPGKAPKLLIYYDDLLPSGVSDRFSGSKSGTSASLAISGVQSEDEADYYCAAWDDSLNVVVFGGGTKLTVL
notes: also called mAb 88; 88 IgG
B12: antibody 40, full-length IgG (antibody, V domains shown)
VH: QVQLVESGGGLVQPGGSLRLSCAVSGFTVSRNYMSWVRQAPGKGLEWVSLIYSGGSTFYADSVKGRFTISRDNSKNTLYLQMNSLRAEDTAVYYCARDLFHRSGYHDYWGQGTLVTVSS
VL: not shown
notes: also called mAb 40; 40 IgG
B13: antibody 384, full-length IgG (antibody, V domains shown)
VH: EVQLVESGGGLVKPGESLRLSCAASGFTFSDYYMTWIRQAPGKGLEWVSYIRSSGHTIYYADSVKGRFTISRDNAKNSLYLQMNSLRVEDTAVYYCARGGVLRFLEWPLNAFDIWGQGTMVTVSS
VL: DIQLTQSPSSLSASVGDRVTITCRASQGISNYLAWYQQKPGKVPKLLIYAASTLQSGVPSRFSGSGSGTDFTLTISSLQPEDVATYYCQKYNNALGTFGQGTKVEIK
B14: antibody 150, full-length IgG (antibody, V domains shown)
VH: QVQLVESGGGLIQPGGSLRLSCAASGVTVSSNYMSWVRQAPGKGLEWVSIIYSGGTTYYADSVKGRFTISRDSSMNTLYLQMNSLRAEDTAVYYCARDLMVYGIDVWGQGTTVTVSS
VL: EIVMTQSPSSLSASVGDRVTITCRASQGISSYLAWYQQKPGKAPKLLIYAASTLQSGVPSRFSGSGSGTDFTLTISSLQPEDFATYYCQQLDSYPPGYTFGQGTKVDIK

One may read the Kd as the concentration at which binding is half-saturated. A low value points to a tighter complex.

In the first assay the target is SARS-CoV-2 spike on whole virus (SARS-CoV-2/human/AUS/VIC01/2020, Victoria) (SARS-CoV-2, UniProt P0DTC2 14-1273). In words: cell-based or functional assay.
Consider B1, for which the “Neutralisation IC50 (FRNT)” value was 0.005 µg/mL.
Consider B2, for which the “Neutralisation IC50 (FRNT)” value stood at 2 µg/mL.
B3: the “Neutralisation IC50 (FRNT)” value is 0.021 µg/mL.
Still for that read-out and setting: the same measure for B4: 0.015 µg/mL; for B5: 0.016 µg/mL; for B6: 0.033 µg/mL.
Still for that read-out and setting: the same measure for B7: 0.036 µg/mL.

A further assay deals with T1, SARS-CoV-2 spike protein on authentic virus, strain SARS-CoV-2/human/AUS/VIC01/2020 (Victoria) (SARS-CoV-2, UniProt P0DTC2 14-1273). In words: cell-based or functional assay.
Take B8: the “Neutralisation IC50” value was found to be 0.13 nM.
On the same count and under the same terms, in the case of B9 it was 0.08 nM.
As to B10, the “Neutralisation IC50” value was 0.08 nM.
As for B11, the “Neutralisation IC50” value was 0.07 nM.
As to B12, the “Neutralisation IC50” value was found to be 0.16 nM.

The target of another assay is T1, SARS-CoV-2 spike protein on authentic …. In words: cell-based or functional assay. This is another data set of the same source.
In the case of B8, the “IC50 (ug/ml), FRNT” value is 0.031 µg/mL.
On the same count and under the same terms, the same measure for B9: 0.018 µg/mL; for B10: 0.011 µg/mL.
Same read-out and setting: the same measure for B11: 0.033 µg/mL; for B12: 0.026 µg/mL.

The target of a further assay is SARS-CoV-2 spike protein on authentic virus, strain B.1.1.7 (SARS-CoV-2, UniProt P0DTC2 14-1273). In words: cell-based or functional assay.
On to B8, for which the “IC50 (ug/ml), FRNT” value is 0.254 µg/mL.
On the same count and under the same terms, in the case of B9 it was 0.024 µg/mL.
For B10, the “B.1.1.7/Victoria Ratio of IC50” value was 5.71 and the “IC50 (ug/ml), FRNT” value was 0.061 µg/mL.
In the case of B13, the “IC50 (ug/ml), FRNT” value was 0.005 µg/mL.
Still for that read-out and setting: the same measure for B11: 0.058 µg/mL.
B14: the “B.1.1.7/Victoria Ratio of IC50” value was 12 and the “IC50 (ug/ml), FRNT” value turned out to be 0.139 µg/mL.
As for B12, the “IC50 (ug/ml), FRNT” value came to 0.035 µg/mL.

For another assay, the target named is T1, SARS-CoV-2 spike protein on authentic …. In words: whole-virus capture ELISA, half-maximal binding.
B8 displayed a Kd of 0.5 nM.
Molecule B9 gave a Kd of 0.13 nM.
Same read-out and setting: the same measure for B10: 0.19 nM.
On the same count and under the same terms, in the case of B11 it was 0.25 nM; in that of B12, 0.33 nM.

The next assay has the same target. In words: calculated from whole-virus ELISA binding and FRNT50.
For B8, the “% Occupancy” value was 20.5%.
Regarding B9, the “% Occupancy” value is 35.4%.
On the same count and under the same terms, in the case of B10 it was 30%.
Regarding B11, the “% Occupancy” value is 21.9%.
Take B12: the “% Occupancy” value is 33.3%.

(Values after US20240043507A1 (RQ BIOTECHNOLOGY, published 2024).)
